From publication PMC11285941

Target: ALTO with a NanoBiT tag at its N-terminus (Merkel cell polyomavirus)
Test: split reporter (BiFC, NanoBiT); NanoBiT in live HEK293 cells, 50 ng LgBiT + 50 ng SmBiT plasmid, 20-24 hours after transfection, NanoGlo reagent, luminescence; an interaction counts when the reading is tenfold above the LgBiT construct with the SmBiT negative control

## STING-LgBiT (from UniProt Q86WV6 1-379) (natural protein)
  luminescence against the LgBiT-tagged construct with the SmBiT negative control: > 10 fold

B1: LgBiT-TBK1 (enzyme)
chain: MQSTSNHLWLLSDILGQGATANVFRGRHKKTGDLFAIKVFNNISFLRPVDVQMREFEVLKKLNHKNIVKLFAIEEETTTRHKVLIMEFCPCGSLYTVLEEPSNAYGLPESEFLIVLRDVVGGMNHLRENGIVHRDIKPGNIMRVIGEDGQSVYKLTDFGAARELEDDEQFVSLYGTEEYLHPDMYERAVLRKDHQKKYGATVDLWSIGVTFYHAATGSLPFRPFEGPRRNKEVMYKIITGKPSGAISGVQKAENGPIDWSGDMPVSCSLSRGLQVLLTPVLANILEADQEKCWGFDQFFAETSDILHRMVIHVFSLQQMTAHKIYIHSYNTATIFHELVYKQTKIISSNQELIYEGRRLVLEPGRLAQHFPKTTEENPIFVVSREPLNTIGLIYEKISLPKVHPRYDLDGDASMAKAITGVVCYACRIASTLLLYQELMRKGIRWLIELIKDDYNETVHKKTEVVITLDFCIRNIEKTVKVYEKLMKINLEAAELGEISDIHTKLLRLSSSQGTIETSLQDIDSRLSPGGSLADAWAHQEGTHPKDRNVEKLQVLLNCMTEIYYQFKKDKAERRLAYNEEQIHKFDKQKLYYHATKAMTHFTDECVKKYEAFLNKSEEWIRKMLHLRKQLLSLTNQCFDIEEEVSKYQEYTNELQETLPQKMFTASSGIKHTMTPIYPSSNTLVEMTLGMKKLKEEMEGVVKELAENNHILERFGSLTMDGGLRNVDCL
  luminescence against the LgBiT-tagged construct with the SmBiT negative control: > 10 fold
